Results: patent US20240158497A1 (published 2024)

T1: human GP130 extracellular domain expressed with a C-terminal mouse IgG2a Fc tag (hGP130-mFc) (human)
T1 construct: also called dimeric human GP130
T1 chain: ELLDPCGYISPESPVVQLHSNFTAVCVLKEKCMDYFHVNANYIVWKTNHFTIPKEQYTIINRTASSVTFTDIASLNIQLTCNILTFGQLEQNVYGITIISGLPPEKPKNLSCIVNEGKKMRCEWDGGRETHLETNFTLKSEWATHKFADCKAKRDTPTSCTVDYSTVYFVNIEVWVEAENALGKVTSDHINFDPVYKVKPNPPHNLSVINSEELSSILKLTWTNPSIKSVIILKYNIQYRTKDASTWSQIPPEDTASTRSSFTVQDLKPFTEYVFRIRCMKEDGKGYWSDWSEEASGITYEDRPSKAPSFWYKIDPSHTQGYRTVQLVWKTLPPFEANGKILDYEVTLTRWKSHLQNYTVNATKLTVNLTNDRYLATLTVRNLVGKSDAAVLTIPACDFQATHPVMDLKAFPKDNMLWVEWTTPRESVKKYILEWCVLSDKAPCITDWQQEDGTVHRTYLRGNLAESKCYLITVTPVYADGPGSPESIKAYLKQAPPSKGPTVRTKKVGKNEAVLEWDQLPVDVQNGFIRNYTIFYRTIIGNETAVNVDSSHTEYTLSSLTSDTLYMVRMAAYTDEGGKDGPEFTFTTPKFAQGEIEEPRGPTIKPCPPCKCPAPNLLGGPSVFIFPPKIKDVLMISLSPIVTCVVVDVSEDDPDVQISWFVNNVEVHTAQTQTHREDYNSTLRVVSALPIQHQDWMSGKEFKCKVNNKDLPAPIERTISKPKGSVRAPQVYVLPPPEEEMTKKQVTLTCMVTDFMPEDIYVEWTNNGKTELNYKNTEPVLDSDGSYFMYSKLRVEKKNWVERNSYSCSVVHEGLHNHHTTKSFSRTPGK


Columns and labels:
[1] = molecular target: T1, human GP130 extracellular domain …; assay: SPR Biacore, mAb captured via anti-hFc, 25 C
Description: (§1) Equilibrium dissociation constant (KD) for different GP130 reagents binding to purified anti-GP130 monoclonal antibodies were determined using a real-time surface plasmon resonance based Biacore 4000 biosensor. All binding studies were performed in 10 mM HEPES, 150 mM NaCl, 3 mM EDTA, and 0.05% v/v Surfactant Tween-20, pH 7.4 (HBS-ET) running buffer at 25° C. and 37° C. The Biacore sensor surface was first derivatized by amine coupling with a monoclonal mouse anti-human Fc antibody (GE, #BR-1008-39) to capture anti-GP130 monoclonal antibodies. […] Reagents tagged with “mmH” are monomeric, whereas reagents tagged with “mFc” are dimeric. Thus, for example, “hGP130-mmH” is also referred to as “monomeric human GP130,” and “hGP130-mFc” is also referred to as “dimeric human GP130.”
(§2) The association rate (k a) and dissociation rate (kd) were determined by fitting the real-time binding sensorgrams to a 1:1 binding model with mass transport limitation using Scrubber 2.0c curve-fitting software. Binding dissociation equilibrium constant (KD) and dissociative half-life (t ½) were calculated from the kinetic rates as: […]

[2] = molecular target: T2, mouse GP130 extracellular domain expressed with a C-terminal myc-myc-hexahistidine tag (mGP130-mmH) (mouse, UniProt Q00560 23-617); assay: SPR Biacore, mAb captured via anti-hFc, 25 C
T2 construct: Monomeric; the entry includes the myc-myc-His tag
T2 sequence (Q00560 other isoform, or with tags, fused parts or gaps): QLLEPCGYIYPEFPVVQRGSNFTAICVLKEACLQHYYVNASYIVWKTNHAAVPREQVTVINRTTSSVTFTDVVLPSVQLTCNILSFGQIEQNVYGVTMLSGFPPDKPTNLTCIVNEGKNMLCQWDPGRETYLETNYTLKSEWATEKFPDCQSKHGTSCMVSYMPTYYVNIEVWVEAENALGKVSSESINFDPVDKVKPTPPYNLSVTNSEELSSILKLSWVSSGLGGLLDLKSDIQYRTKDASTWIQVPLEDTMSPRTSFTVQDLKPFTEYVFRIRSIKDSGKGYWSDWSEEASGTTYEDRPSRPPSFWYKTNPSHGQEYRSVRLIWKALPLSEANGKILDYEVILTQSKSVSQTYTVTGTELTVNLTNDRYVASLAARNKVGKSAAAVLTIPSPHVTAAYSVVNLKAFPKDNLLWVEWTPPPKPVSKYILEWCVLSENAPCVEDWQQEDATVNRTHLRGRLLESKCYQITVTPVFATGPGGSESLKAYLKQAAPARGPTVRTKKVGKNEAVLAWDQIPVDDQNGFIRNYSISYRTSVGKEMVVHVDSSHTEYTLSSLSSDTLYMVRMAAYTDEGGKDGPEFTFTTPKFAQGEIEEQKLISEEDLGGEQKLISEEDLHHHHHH
Description: as §1, §2

[3] = molecular target: T3, rat GP130 extracellular domain expressed with a C-terminal myc-myc-hexahistidine tag (rGP130-mmH) (rat, UniProt P40190 23-618); assay: SPR Biacore, mAb captured via anti-hFc, 25 C
T3 construct: Monomeric; the entry includes the myc-myc-His tag
T3 sequence (P40190 other isoform, or with tags, fused parts or gaps): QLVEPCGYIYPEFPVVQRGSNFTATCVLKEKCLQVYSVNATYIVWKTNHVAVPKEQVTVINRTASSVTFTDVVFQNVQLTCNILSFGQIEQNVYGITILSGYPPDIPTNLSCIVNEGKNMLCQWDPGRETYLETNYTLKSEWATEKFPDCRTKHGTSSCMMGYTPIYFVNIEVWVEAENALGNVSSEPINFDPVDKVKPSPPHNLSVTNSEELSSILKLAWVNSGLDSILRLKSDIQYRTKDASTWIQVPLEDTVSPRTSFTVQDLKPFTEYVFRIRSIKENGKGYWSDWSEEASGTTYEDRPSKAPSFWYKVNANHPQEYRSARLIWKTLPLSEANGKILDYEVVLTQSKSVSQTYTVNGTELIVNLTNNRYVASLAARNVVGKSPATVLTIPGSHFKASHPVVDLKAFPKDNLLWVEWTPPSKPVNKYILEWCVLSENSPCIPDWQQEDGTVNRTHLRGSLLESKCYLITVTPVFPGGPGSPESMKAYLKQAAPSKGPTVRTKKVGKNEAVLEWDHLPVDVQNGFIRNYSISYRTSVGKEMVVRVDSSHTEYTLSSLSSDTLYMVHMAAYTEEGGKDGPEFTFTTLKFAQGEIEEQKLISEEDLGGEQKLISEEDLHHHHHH
Description: as §1, §2

[4] = molecular target: T1, human GP130 extracellular domain …; assay: SPR Biacore, mAb captured via anti-hFc, 37 C
Description: as §1, §2

[5] = molecular target: T2, mouse GP130 extracellular domain …; assay: SPR Biacore, mAb captured via anti-hFc, 37 C
Description: as §1, §2

[6] = molecular target: T3, rat GP130 extracellular domain …; assay: SPR Biacore, mAb captured via anti-hFc, 37 C
Description: as §1, §2

[7] = molecular target: T4, mouse GP130 extracellular domain expressed with a C-terminal myc-myc-hexahistidine tag (mouse, UniProt Q00560 23-617); assay: SPR
T4 construct: monomeric; also called mGP130-mmH; mGP130-MMH
T4 sequence (Q00560 other isoform, or with tags, fused parts or gaps): as the sequence (Q00560 other isoform, or with tags, fused parts or gaps) above
Description: as §1, §2

[8] = molecular target: T5, human GP130 extracellular domain expressed with a C-terminal myc-myc-hexahistidine tag (human, UniProt P40189 23-619); assay: SPR 25C, mAb captured, hGP130-MMH injected
T5 construct: monomeric; also called hGP130-mmH; hGP130-MMH
Description: as §1, §2

Binder	100 nM Ag Bound (RU) [1] [RU]	Kd [1] [nM]	koff [1] [s⁻¹]	kon [1] [M⁻¹ s⁻¹]	t½ [1] [min]	100 nM Ag Bound (RU) [2] [RU]	100 nM Ag Bound (RU) [3] [RU]	binding result [3]	100 nM Ag Bound (RU) [4] [RU]	Kd [4] [nM]	koff [4] [s⁻¹]	kon [4] [M⁻¹ s⁻¹]	t½ [4] [min]	100 nM Ag Bound (RU) [5] [RU]	binding result [5]	100 nM Ag Bound (RU) [6] [RU]	binding result [7]	100 nM Ag Bound (RU) [8] [RU]	Kd [8] [nM]	koff [8] [s⁻¹]	further results
MAb16623 (antibody, V domains shown) VH: EVQLVESGGGLVQPGGSLRLSCAASGLTFSSYEMNWVRQAPGKGLEWVSHISSAGSTKYYADSVKGRFTISRDNAKNSLFLQMNSLRAEDTAIYYCAGYNYAYYYFGVDVWGQGTTVTVSS VL: not shown																	no binding (tested: 100 nM)	77	21	0.00377	kon [8]: 180000 M⁻¹ s⁻¹; t½ [8]: 3 min
MAb16683 (antibody, V domains shown, captured through anti-human Fc) VH: QVQLVESGGGLVKPGGSLRLSCAASGFTFSDYYMTWIRQTPGKGLDWVSYISSSGTNKYNADSVKGRFTISRDNAKNSLYLQMNSLRAEDTAVYYCVRDPPWGMDVWGQGTTVTVSS VL: not shown	107	1.86	0.000311	167000	37	0	0	no binding (tested: 100 nM)	111	5.8	0.00114	196000	10	0	no binding (tested: 100 nM)	0					
MAb16673 (antibody, V domains shown, captured through anti-human Fc) VH: EVQLVQSGAEVKKPGESLKISCKGSGYSFTSYWIDWVRQMPGKGLEWMGIIYPDDSDTRYSPSFQGQVTMSVDKSISTAYLQWSSLKASDTAIYYCARHERGIVEAGTDYYYYYGMDVWGQGTTVTVSS VL: not shown	169	0.173	9.66e-05	560000	120	0	0	no binding (tested: 100 nM)	199	0.457	0.000313	684000	37	1	no binding (tested: 100 nM)	2					
MAb16676 (antibody, V domains shown, captured through anti-human Fc) VH: QVQLVQSGAEVMKPGASVKVSCRASGYTFSSYDINWVRQAPGQGLEWMGWISTATGNTNYPQKVQGRVTMTTDTSTNTAYMELRSLRSDDTAVYYCTREGNSKGWLDPWGQGTLVTVSS VL: not shown	119	0.0836	7.13e-05	853000	162	0	0	no binding (tested: 100 nM)	140	0.0566	9.45e-05	1.67e+06	122	0	no binding (tested: 100 nM)	0					

Continued, in another order:

100 nM Ag Bound (RU) [1] [RU]	Kd [1] [nM]	koff [1] [s⁻¹]	kon [1] [M⁻¹ s⁻¹]	t½ [1] [min]	100 nM Ag Bound (RU) [2] [RU]	100 nM Ag Bound (RU) [3] [RU]	binding result [3]	100 nM Ag Bound (RU) [4] [RU]	Kd [4] [nM]	koff [4] [s⁻¹]	kon [4] [M⁻¹ s⁻¹]	t½ [4] [min]	100 nM Ag Bound (RU) [5] [RU]	binding result [5]	100 nM Ag Bound (RU) [6] [RU]	binding result [7]	100 nM Ag Bound (RU) [8] [RU]	Kd [8] [nM]	koff [8] [s⁻¹]	Binder	further results
126	2.1	0.000361	172000	32	1	0	no binding (tested: 100 nM)	130	8.33	0.00196	236000	6	0	no binding (tested: 100 nM)	1					MAb16682 (antibody, V domains shown, captured through anti-human Fc) VH: EVQLVESGGGLVQPGGSLRLSCAASGFTFSTYWMNWVRQAPGKGLEWVANIKEDGSEKYYVDSVKGRFTISRDNAKNSLYLQMNSLRAEDTAVYYCAREGFGVVTYIWGQGTMVTVSS VL: not shown	
																no binding (tested: 100 nM)	54	46.7	0.00325	MAb16683 (antibody, V domains shown) VH: QVQLVESGGGLVKPGGSLRLSCAASGFTFSDYYMTWIRQTPGKGLDWVSYISSSGTNKYNADSVKGRFTISRDNAKNSLYLQMNSLRAEDTAVYYCVRDPPWGMDVWGQGTTVTVSS VL: not shown	kon [8]: 69700 M⁻¹ s⁻¹; t½ [8]: 4 min
40	8.21	0.000241	29300	48	0	-2		59	5.85	0.00038	65100	30	-1		-2					MAb16669 (antibody, V domains shown, captured through anti-human Fc) VH: EVQLVESGGGLVQPGGSLRLSCAASGFTFSSYAMNWVRQAPGKGLEWVSAISGSGDSTYYTDSVKGRFTISRDNSKNTLYLQMNTLRAEDTAVYYCAKEEIVMLVGATPGWFDPWGQGTLVTVSS VL: not shown	
																no binding (tested: 100 nM)	17	35.4	0.000403	MAb16669 (antibody, V domains shown) VH: EVQLVESGGGLVQPGGSLRLSCAASGFTFSSYAMNWVRQAPGKGLEWVSAISGSGDSTYYTDSVKGRFTISRDNSKNTLYLQMNTLRAEDTAVYYCAKEEIVMLVGATPGWFDPWGQGTLVTVSS VL: not shown	kon [8]: 11400 M⁻¹ s⁻¹; t½ [8]: 29 min
																no binding (tested: 100 nM)				MAb16680 (antibody, V domains shown) VH: QVQLQQSGPGQMKSSQTLTLTCAISGDSVSSNSAIWYWIRQSPSRGLEWLGRTKFRSKWYNDFALSMKSRITINPDTSKNQFSLHLNSVTPEDTAVYYCARYKWELYFDYWGQGTLVTVSS VL: not shown	
